# In the domain aggregation screens of Martell et al. (2025):
# Test: soluble fraction after stress (log2 fold change); higher = more stays soluble; pooled small domains, quantitative proteomics
# Details: stress: pH 4
# Method in brief: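 After pH 4 stress, pooled custom libraries of small protein domains were quantified with high-throughput quantitative proteomics. Aggregation propensity is taken from the fold change in each domain's soluble amount following the acid stress. The scale is log2, where higher values mean more stayed soluble.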
row,Sequence,soluble fraction (log2)
1,HMANLNFDMSQIVASRYQEKAAELGVTAPSLARTDYNTQEQATYEFVAREIIADYYDDRVAPFNDLIPE,-0.967
2,HMAEKVIVVADSITVGELAEKLNLPVTNLIGELFKNGIVSTINQRIDFETASIIVEELGLDVELERK,-0.96
3,HMGTQKVQVVNGPINVRSGPGPTFEKIGMVEDQAVYQVVSKKDDWFQISLPGNKTAWVAGWLVKEIK,-0.0241
4,HMLEQISDPEVLSKLADEVLSQQEKMVMDYRKGKTAAFQGLMGQMMKKTKGKGNPAKIQEILAQKL,-0.192
5,HMAPKRIVLRFGKDISDKPIIYYLVKDYDLVINILKANVNPNKEGTLVLELSGENYDKGIEFLISQGVTVQ,-1.33
6,HMTDVHFIDVPVSEGHPWIGLTVKDLNLPPGTLLVFLNHPGEKSTVPNGDTVLREGDVLVLGATAYAG,-1.02
7,HMAIQGVRLYERTLETGDPWLDRPLSTLSTGTRLIILVRRGGDVLIPKGDTVLLAGDTLVINDS,-1.94
8,HMRQEIIEDSRKLLEESLKRYDLTYQEFIDTLKSKNMNVESTLINIIKNQSSLDLVLRNLGLIAP,-0.869
9,HMLNTLGADIRALRKARGLTLAELAQTLGRSVGWLSQVERDMSEPGINDLRDLARALDVSISSLFG,-0.366
10,HMATHGRRAVIELREKIVSGELPGGTRLFEVSLAETLDISRTPVREALSRLAEEGLLDRLPNGGFVVRR,-1.39
11,HMGMSKQKQSSLVRIIMQEISDANEGRMKMSQIIDAALIKGISDSTVRSVISRLSTTGAIYEPQTGTYEW,-0.374
12,HMSYANVEWRDFLNSLDEKYRIVVILYYVQGFKTREIAEILQINQSTVRGRLAKAREKLEQQYN,-1.13
13,HMSNIAQRLVLENALAKLNQEQQTIIDLRIIKGYSVAETARLLGKTESAVRTAQYRALKELAGILEED,-0.0342
14,HMHAGMKSWTIQYEKSPIYGSFLMYKDGNIYIQKEDNVVVHFPLDRFSQNDQAILKSRIEKIDQINKSS,-0.0137
15,HMKVSFEIEINGVTKSINSINEAKEAISELQDIMDNSTFGSEEFKNAATQIDKLQNKLVEALDK,-1.4
16,HMLLRSEDAIELGKSQLEDALAPYKIETLDTGTVQQLLDSLKLNSLESLYQEIGLGNRMSTIIAHRLLGE,-0.88
17,HMRGDQLREHLLWTAKDVFLELGFERASMDAVAARAETSKRSLYAHFESKEKLFLAVIDLVRG,-1.65
18,HMKHYMKITDISLQTRDKNRVNVSVDGKYRFSLDVFQVGELGLKVGREYTDEELTALEDESQFG,0.0815
19,HMTYYEGYYRKNQKGFGFVIVDGRDEDIYIDAKNMNGALNNDLVVVEELKGQNGKKTEGRVVKVLKKE,-0.284
20,HMDTLTRAMVWTIIARAEGVDTTGGATWYAKAQEWVTAKGISDGENPNAAITRQELVTMLYRLAGEPAV,-0.681
21,HMNLSNVVIRKVQEMILSGELQEGDKLPPEREMTQRLGIGRPALREGLKSLEMLGLVERRHGLGNFIINKV,-0.475
22,HMASALDFGRYVRSQYSLQEFPLILIAPLNDPHPKEVVRELFNLYLTKPITRSRLFDSLMTVLG,-0.499
23,HMLRTEYLTVNYAKASEVAELVTASGFLSSRGSITVDERTNTLLLQDTATNIDEVRFMLEQLD,-0.868
24,HMADNKDMQAAFMEALNGLKEYAKVNGNIVTKEDVNSYFKDMHLDDNKYSMITGYLMANGITIKG,-0.432
25,HMIPKIIDITDLNEEVREVIEEYMKRKRVEKYHIYQDSKGQIFIISGSAIIRYDSKLNNLYYL,-0.395
26,HMKYPVYLQLADLIERKINKNEYPLGSKIPSERELIDAFGISRMTVRKAIEVLIEKGLLTRQHGKGTYVSQ,0.182
27,HMYNMEELAGHTEKVYNSLPEELKLVIKLREIENMSYDEISLKTGMPIGTVRSRLHRAREILVDSLKDY,-0.491
28,HMNTAIPIAIDQLRIGMYIQLGLNWMSHPFPVSSFRIASESQIEILRGLGLAEVRYVPAKSDPVP,-0.911

row,Sequence,soluble fraction (log2)
1,HMNIGELINKKRTELGLTLEEVGNAVGVSKSTVKKWEDGFISNMRRDKISKLAKVLEMNPVSLITGE,-0.0212
2,HMERLSVSMGDMVVFVRDAVEAFRGLVKEKGITLTFESKVEHFYMNYDHDKVYKVVNNLLSNAVKFT,-1.31
3,HMDISEIEKRLLDFLEMPRSRKEIAEHLGIRTISYAIQTYITPLIDKKLVKMTIPESPRSHSQQYVRIN,-0.125
4,HMTPKTSVPKPGQTVVVRKGDTIYALARIHDITPADLIAWNRLDNPSQIYPGQVIRLYPQGA,0.105
5,HMAKTGMDALVGRRVVLTKAIAGEGEGLVAVDGDVWRATSPAGSAIPKGTEVRITGYRSIVLEVEPI,0.139
6,HMEEQGLPLVIISDGKVLAQNLTLRSLDRAWLQDQLTQHGHSKPEQVFLLTVDERGAVYYVPKE,-1.86
7,HMSEYILATNDGEFLRITSYSKEEGGMLVWEKTSSIVSAEHKVIPYSQIINIKDRNGDVVWDKD,-0.0816
8,HMKYSNDFDKVSYSLGLSIASNLISSGVKTLNAEAFNDGLATVFEGRMPEINPDEANKILQNFFEGLQKE,-0.632
9,HMDLAENWKDDADITLAEYNAIRSRYKPGKLHRDTEFMIARDMLIRPETVLAIAHSRFSNVHTHPV,-0.771
10,HMTISDTAYQAFLEQLGVGMVVEHKRFGEGVITGMPKGKIRITFEEGTKSFQARALAESGMLK,-0.824
11,HMSIITLFQEINAAVAEATGGRVPESVVQNFILGKDVVIPEDVKEIIISKLKAFATDIEGMLEESGFD,-2.59
12,HMRPADTAAMLKYLSSGAVKGIGGALAGRIIEAFGDESIKVIEEDPARLATVKGITLKKAKEISEEMQRVN,0.0199
13,HMKTGTVQDFIAKYGMSSKSPSSWFNSLTQIQKAEAKALKAQSGLTWNEWYEKNIYNGDGSNL,-0.119
14,HMNQNIYVPKLEGLQIEEASSILKSKGLNIEITDSIFRKDAVPGAIIEQTPKPNSRVKTGRNIYVSIYSK,-0.199
15,HMYEDNERNLYSVVINFLNEHKIKISREAINLVINRSSGDKHNLKQELNKILNYSFSNKNITYETIEKLSN,0.0456
16,HMKMSVEEVNLSPRTTNALINNDIKTMKDLVALTDTELRDLKGFGSKAYEEVKEKLSELGLSTQ,-0.546
17,HMTGKASEIAALLEQRIAAGDYPAGSKLPSERELAASFHVSRNTIRDAIALLAARKIVSTKWGAGTVVLG,-0.0946
18,HMLIADADSLRKQIETVLANAPNEVAAYRGGKETLMGWFVGQIMRATGGKADPKLTREILAELLQ,-0.126
19,HMAWIGEHTVTSEDTLSHIALKFYGHATPPYYKLIYEANKAIIGDNMNIIVPGQVLRIPALPEEL,-0.592
20,HMRDLTARQQQILALIRQHIADTGFPPTRAEIAAQLGFRSPNAAEEHLKALARKGVIELASGASRGIRLK,0.283
21,HMENTELIELRKKRNLSQSQLAELLDLTRNQIANYESGRRIPDQETKQIIAGFFEMPAEEIFAG,-0.0656
22,HMDTKLFNYGVGKHAYISWNEGGKRTAYIGFGNDGADVLTINNVKQGGSLGIYKDKITLNSQTVLTD,-0.381
23,HMEVSTDADFEAVGIRAELIPILQKLGFTTVAQLKEVKATKLFNDIPGMRKKLKLDAVQNPTLQEIEGWLK,0.0606
24,HMRSNIYTEEKLWTVLQDFFQENRYLTISLMRMKFGLSRHMAQKWIDHFIAKGLLVKDGTPRSPIYFLND,-0.538
25,HMLEPGQKVKSVVVDISGDLIYIDLGGKTEGVVELKEFYDEAGEYHVKPGDEIEVFFVSVQNGLKRFTT,-0.403
26,HMDENVVLRKVAREAFVIEYVRGIRAIDPGIGGPKLWLMYKREFGDNDTVGRDTFEDILDRNNLKVRI,-0.363
27,HMAPTADSVPFVIRSVVGGAQPFIVLEDGSKLLVGGVYRKYRLVAVENTRIIFEGPRTAIVT,-0.681
